Biological target: 5-HT1AR-Rluc (UniProt P08908)
Experiment: BRET
Conditions: HEK293 cells, basal (no agonist); parent: est. 0.27; read off a plot

5-HT1AR-Rluc, sequence (P08908 whole entry): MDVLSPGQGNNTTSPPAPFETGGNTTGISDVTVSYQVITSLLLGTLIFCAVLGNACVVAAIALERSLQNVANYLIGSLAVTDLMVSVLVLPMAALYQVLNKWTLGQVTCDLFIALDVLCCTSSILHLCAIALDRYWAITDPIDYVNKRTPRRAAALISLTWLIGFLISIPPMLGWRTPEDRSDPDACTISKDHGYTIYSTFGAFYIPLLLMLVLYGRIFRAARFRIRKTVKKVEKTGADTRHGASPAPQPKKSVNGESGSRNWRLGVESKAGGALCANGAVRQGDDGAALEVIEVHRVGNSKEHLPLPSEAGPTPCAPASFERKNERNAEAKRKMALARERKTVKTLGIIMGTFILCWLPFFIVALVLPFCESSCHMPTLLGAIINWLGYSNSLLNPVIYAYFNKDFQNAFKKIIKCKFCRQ
OX1R-EGFP, sequence (O43613 whole entry, stated change not applied): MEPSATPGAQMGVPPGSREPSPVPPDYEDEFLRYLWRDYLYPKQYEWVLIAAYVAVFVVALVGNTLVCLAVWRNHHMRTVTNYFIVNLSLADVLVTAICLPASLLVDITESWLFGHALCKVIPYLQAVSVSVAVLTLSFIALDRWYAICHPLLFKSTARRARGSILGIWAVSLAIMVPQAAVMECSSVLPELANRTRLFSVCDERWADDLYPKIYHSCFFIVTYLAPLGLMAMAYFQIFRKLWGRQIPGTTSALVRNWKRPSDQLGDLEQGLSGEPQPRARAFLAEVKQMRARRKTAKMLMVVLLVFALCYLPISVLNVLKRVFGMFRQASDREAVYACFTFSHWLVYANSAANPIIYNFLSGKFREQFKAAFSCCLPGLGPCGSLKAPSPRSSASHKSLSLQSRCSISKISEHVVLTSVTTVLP

For OX1R-EGFP (from UniProt O43613) L168A, the response was 0.27.

Reference: paper PMC8956632
